Legend:
rat HSCs = details: blocking integrins in rat HSCs; cited from earlier work
Description: While the mechanisms underlying this anti-apoptotic property of CVI remain to be fully established, our studies point to a potent repression of BAX by soluble CVI. […] This growth factor withdrawal-induced p53 and Bax upregulation can be mitigated by ECM components through integrin-mediated adhesion and spreading as shown for rat HSCs.

[1] = tested on: 10% FBS-induced proliferation of HSC; test: Inhibition of 10% FBS-induced proliferation by alpha single chains, [3H]-thymidine incorporation; assay type: cell-based, rat; details: cells grown in 10% FBS, Fig 4A
Protocol: (§1) 5x10^3CFSC in 100 μl 10% FBS were seeded into a 96-well flat-bottom tissue culture plate (Nunc, Roskilde, Denmark). After 24 hours, medium was completely removed, and cells were rinsed with 200 μl phosphate-buffered saline and 100 μl standard medium containing only 0.25% FBS were added. Cells were cultured for additional 24 h prior to treatment. Synchronized microcultures in 96-well plates were treated for 2 hours in reduction medium. When appropriate, the reduction medium was supplemented with 40 mg/l of α1(VI), α2(VI) or α3(VI). Then, 30 mg/l CVI or CI as control were added and cells were incubated for 24 h after which [^3H]-thymidine was added for additional 24 h. To assess effects of α3(VI)-derived 30-mer peptides on CVI-induced proliferation of CFSC, the reduction medium was supplemented with a 100-fold molar excess of the respective 30-mer peptides compared to CVI. [^3H]-thymidine incorporation was measured as described before. Cells treated with 150 mmol/l HAc or grown in 10% FBS served as negative and positive controls, respectively. During the last 4 hours of treatment, all cultures received 18.5 kBq [^3H]-thymidine (Amersham, Freiburg, Germany). Cells were fixed with 10% trichloroacetic acid and lysed by 200 mmol/l NaOH. After neutralization with 800 mmol/l HCl, lysates were collected to a glassfibre mat and the de-novo DNA synthesis was assessed by liquid scintillation (LKB Wallac, Bromma, Sweden) and the radioactive decay was counted (for) a minute (cpm).

CFSC = test: Fibrosis-associated gene expression, quantitative real-time PCR; assay type: cell-based, rat; details: serum-starved CFSC; 30 mg/l CVI plus 133 mg/l monomeric alpha chain; 24 h; n = 4
Protocol: 30 mg/l CVI, 133 mg/l of the monomeric alpha chains of CVI and/or TGF-β (2 ng/ml) were added after 24 h. […] Reverse transcribed complementary DNA templates were amplified by quantitative real-time polymerase chain reaction (PCR; Roche Diagnostics, Mannheim, Germany) using fluorogenic probes labeled with 6-carboxy-fluorescein and 6-carboxy-tetramethylrhodamin (Sigma- Genosys, Steinheim, Germany) and primer pairs (Invitrogen, Karlsruhe, Germany) specific for fibrosis-associated genes (for sequences see S2 Table). Gene expressions were normalized to glyceraldehyde phosphate dehydrogenase (GAPDH).

[2] = Live/Dead Viability/Cytotoxicity Kit (Calcein AM staining); assay type: cell-based; details: 24 h with individual chains; S4 Fig; three independent experiments
Protocol: Supplementary file pone.0254557.s004.pdf: S4 Fig Single CVI chains are not toxic To exclude that the effects of the alpha chains on proliferation or gene expression are due to cytotoxic effects, cells were treated 24 h with individual chains and cell viability was determined using the two-colour fluorescence Live/Dead™ Viability/Cytotoxicity Kit (Invitrogen™). Methanol (10% in medium) was used a positive control to induce cell toxicity. Medium was used as a non-toxic negative control. Since acetic acid (HAc) is used as solvent of the chains, cells treated with 0.15 M HAc were included as an additional control group. Shown are Mean ± SD of three independent experiments. Statistics were calculated by one-way ANOVA analysis and Tukey’s multiple comparisons test. Differences p<0.05 were considered significant. (PDF) Click here for additional data file.

[3] = tested on: CVI-induced proliferation of HSC; test: Inhibition of CVI-induced proliferation by alpha single chains, [3H]-thymidine incorporation; assay type: cell-based, rat; details: 40 mg/l single chain, then 30 mg/l CVI; 24 h; primary rHSCs, n = three; Fig 4A legend: CFSC, n = 4
Protocol: as §1

## Gly-Arg-Gly-Asp-Ser [GRGDS]
Rat HSCs
  increase in the Bax/Bcl-2 ratio: 3 fold

## α3(VI): monomeric alpha 3 single chain of collagen VI isolated from human placentas
[1]
  effect on 10% FBS-induced proliferation: did not block any FBS-induced proliferation
CFSC
  effect on CVI-induced expression of αSMA, CI and TGF-β: largely blocked
[2]
  cytotoxic effects (Calcein AM staining, cell viability): not secondary to cytotoxic effects
[3]
  inhibition of DNA synthesis in the presence of CVI: 70%

B1: α2(VI): monomeric alpha 2 single chain of collagen VI isolated from human placentas (protein, UniProt P12110 21-1019, looked up)
Collagen alpha-2(VI) chain: QQQEVISPDTTERNNNCPEKTDCPIHVYFVLDTSESVTMQSPTDILLFHMKQFVPQFISQLQNEFYLDQVALSWRYGGLHFSDQVEVFSPPGSDRASFIKNLQGISSFRRGTFTDCALANMTEQIRQDRSKGTVHFAVVITDGHVTGSPCGGIKLQAERAREEGIRLFAVAPNQNLKEQGLRDIASTPHELYRNDYATMLPDSTEIDQDTINRIIKVMKHEAYGECYKVSCLEIPGPSGPKGYRGQKGAKGNMGEPGEPGQKGRQGDPGIEGPIGFPGPKGVPGFKGEKGEFGADGRKGAPGLAGKNGTDGQKGKLGRIGPPGCKGDPGNRGPDGYPGEAGSPGERGDQGGKGDPGRPGRRGPPGEIGAKGSKGYQGNSGAPGSPGVKGAKGGPGPRGPKGEPGRRGDPGTKGSPGSDGPKGEKGDPGPEGPRGLAGEVGNKGAKGDRGLPGPRGPQGALGEPGKQGSRGDPGDAGPRGDSGQPGPKGDPGRPGFSYPGPRGAPGEKGEPGPRGPEGGRGDFGLKGEPGRKGEKGEPADPGPPGEPGPRGPRGVPGPEGEPGPPGDPGLTECDVMTYVRETCGCCDCEKRCGALDVVFVIDSSESIGYTNFTLEKNFVINVVNRLGAIAKDPKSETGTRVGVVQYSHEGTFEAIQLDDERIDSLSSFKEAVKNLEWIAGGTWTPSALKFAYDRLIKESRRQKTRVFAVVITDGRHDPRDDDLNLRALCDRDVTVTAIGIGDMFHEKHESENLYSIACDKPQQVRNMTLFSDLVAEKFIDDMEDVLCPDPQIVCPDLPCQTELSVAQCTQRPVDIVFLLDGSERLGEQNFHKARRFVEQVARRLTLARRDDDPLNARVALLQFGGPGEQQVAFPLSHNLTAIHEALETTQYLNSFSHVGAGVVHAINAIVRSPRGGARRHAELSFVFLTDGVTGNDSLHESAHSMRKQNVVPTVLALGSDVDMDVLTTLSLGDRAAVFHEKDYDSLAQPGFFDRFIRWIC
[1]
  effect on 10% FBS-induced proliferation: also inhibited 10% FBS-induced proliferation
CFSC
  effect on CVI-induced expression of αSMA, CI and TGF-β: largely blocked
[2]
  cytotoxic effects (Calcein AM staining, cell viability): not secondary to cytotoxic effects
[3]
  inhibition of DNA synthesis in the presence of CVI: 60%

— PMC8412337, “Alpha-single chains of collagen type VI inhibit the fibrogenic effects of triple helical collagen VI in hepatic stellate cells” (PLoS ONE, 2021)
